Test results published in US20080199514A1 (BURNHAM INSTITUTE, published 2008).

Target: T1, Lck phosphopeptide (ARLIEDNEpYTAAREG)
T1 chain: ARLIEDNEYTAAREG

B1: full length Hemagglutinin (HA) tagged LYP having W620 (protein)
chain: MDQREILQKFLDEAQSKKITKEEFANEFLKLKRQSTKYKADKTYPTTVAEKPKNIKKNRYKDILPYDYSRVELSLITSDEDSSYINANFIKGVYGPKAYIATQGPLSTTLLDFWRMIWEYSVLIIVMACMEYEMGKKKCERYWAEPGEMQLEFGPFSVSCEAEKRKSDYIIRTLKVKFNSETRTIYQFHYKNWPDHDVPSSIDPILELIWDVRCYQEDDSVPICIHCSAGCGRTGVICAIDYTWMLLKDGIIPENFSVFSLIREMRTQRPSLVQTQEQYELVYNAVLELFKRQMDVIRDKHSGTESQAKHCIPEKNHTLQADSYSPNLPKSTTKAAKMMNQQRTKMEIKESSSFDFRTSEISAKEELVLHPAKSSTSFDFLELNYSFDKNADTTMKWQTKAFPIVGEPLQKHQSLDLGSLLFEGCSNSKPVNAAGRYFNSKVPITRTKSTPFELIQQRETKEVDSKENFSYLESQPHDSCFVEMQAQKVMHVSSAELNYSLPYDSKHQIRNASNVKHHDSSALGVYSYIPLVENPYFSSWPPSGTSSKMSLDLPEKQDGTVFPSSLLPTSSTSLFSYYNSHDSLSLNSPTNISSLLNQESAVLATAPRIDDEIPPPLPVWTPESFIVVEEAGEFSPNVPKSLSSAVKVKIGTSLEWGGTSEPKKFDDSVILRPSKSVKLRSPKSELHQDRSSPPPPLPERTLESFFLADEDCMQAQSIETYSTSYPDTMENSTSSKQTLKTPGKSFTRSKSLKILRNMKKSICNSCPPNKPAESVQSNNSSSFLNFGFANRFSKPKGPRNPPPTWNI
Dephosphorylation of an Lck phosphopeptide by immunoprecipitated HA-tagged LYP; specific activity relative to LYP*R620: LYP*W620 displayed a 57.2% (±9.8%, n=5) higher specific activity when corrected for amount of protein
